The results in this text go back to patent US20120316071A1 (published 2012).

Experiment [1] addresses T1, rHuman IGF-1 sR, CF (R&D Systems Cat#391-GR) (human, UniProt P08069 31-932).
T1 construct: bought soluble receptor; also called insulin-like growth factor-1 soluble receptor
In words: Multispot ECL.

The target in experiment [2] is T2, Recombinant Human DLL4 (R&D Systems Cat#1506-D4/CF) (human, UniProt Q9NR61 27-524).
T2 construct: bought recombinant protein; also called rHuman DLL4; delta-like protein 4
The experiment in a line: Multispot ECL titration.

B1: Fab VH1-46_IGHD6-6*01_IGHJ1*01 S102A/S103P/S104F & L6_IGKJ1*01 (Fab, V domains shown)
VH: QVQLVQSGAEVKKPGASVKVSCKASGYTFTSYYMHWVRQAPGQGLEWMGIINPSGGSTSYAQKFQGRVTMTRDTSTSTVYMELSSLRSEDTAVYYCAREEYAPFSAEYFQHWGQGTLVTVSS
VL: not shown
notes: Fab; also called H:APF & L:wt; APF triple mutant
As to B1, the binding result in experiment [1] was “no binding”. In addition, the “fold binding affinity against the parent antibody” value in experiment [2] is 10 fold.
